B1: TPR t1 (parent)
chain: GACCAAUCUGCCCUCAGAGCUCGAGAACAUCUUCGGAUGCAGAGGAGGCAGGCUUCGGUGGCGCGAUAGCGCCAACGUCCUCAACCUCCAAUGCAUCCCACCACAUGAUGAUGCCUGAAGAGCCUUGGUUUUUUG

Variants of: B1
Assay: polymerase ribozyme fitness, log enrichment relative to wild type (log ratio); higher = more active; in vitro selection for triplet polymerase activity
How it was run: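 After PCR construction and transcription, each subunit's mutant library from a heterodimeric triplet polymerase ribozyme was annealed with a biotinylated primer, the partner subunit and triplets. Incubation was frozen, at −7 °C, and extended constructs were gel-excised, bound to streptavidin beads and amplified by RT-PCR, in one selection round done in triplicate. Fitness is the logarithm of a genotype's enrichment divided by that of the wild type, from inverse-variance-weighted replicate averages of Illumina-sequenced inputs and outputs. The base of the logarithm is 2, and genotypes needed ≥10 input reads and ≥1 read per output.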

Row | Variant | polymerase ribozyme fitness (log ratio)
1 | GACCAAUCUGCCCUCAGAGCUCGAGAACAUCUUCGGAUGCAAAGGAGGCAGGCUUCGGUGGCGUGAUAGCGCCAACGUCCUCAACCUCCAAUGCAUCCCACCACAUGAAGAUGCCUGAAGAGCCUUGGUUUUUUG [G42A C64U U109A] | -6.32
2 | GACCAAUCUGCCCUCAGAGCUCGAGAACAUCUUCGGAUGCAAAGGAGGCAGGCUUCGGUGGCGCGAUAGCGCCAACGUCCUCAACCUCCAAUGCAUCCCACCACAUGAUGAUGCCUGAAGAGCCUUGCUUUUUUG [G42A G128C] | -4.63
3 | GACCAAUCUGCCCUCAGAGCUCGAGAACAUCUUCGGAUGCAAAGGAGGCAGGCUUCGGUGUCGCGAUAGCGCCAACGUCCUCAACCUCCAAUGCAUCCCACCACAUGAUGAUGCCUGAAGAGCCUUGGUUUUUUG [G42A G61U] | -2.48
4 | GACCAAUCUGCCCUCAGAGCUCGAGAACAUCUUCGGAUGCAAAGGAGGCAGGCUUCGGUGGCGCGAUAGCGCCAACGUCCUCAACCUCCAAUGCAUCCCACCACAUGAUGGUCCCUGAAGCGCCUUGGUUUUUUG [G42A A111G G113C A121C] | -0.948
5 | GACCAAUCUGCCCUCAGAGCUCGAGAACAUCUUCGGAUGCAAAGGAGGCAGGCUUCGGUGGCGCGAUAGCGGCAACGUCCUCAACCUGCAAUGCAUCCCACCACAUGAUGAUGCCUGAAGAGCCUUGGUUUUUUG [G42A C72G C88G] | -3.92
6 | GACCAAUCUGCCCUCAGAGCUCGAGAACAUCUUCGGAUGCAAAGUAGGCAGGCUUCGGUGGCGCGAUAGCGCCAACGUCCUUAACCUCUUAUGCAUCCCACCACAUGAUGAUGCCUGGAGAGCCUUGGUUUUUUG [G42A G45U C82U C89U A90U A118G] | -1.67
7 | GACCAAUCUGCCCUCAGAGCUCGAGAACAUCUUCGGAUGCAAAGGAGGCAGGCUUCGGUGGCGCGAUAGCGCCAACGACCUCAACCCCCAAUGCAUCCCACCACAUGAUGAUGUCUGAAGAGCCUUGGUUUUUUG [G42A U78A U87C C114U] | -2.27
8 | GACCAAUCUGCCCUCAGAGCUCGAGAACAUCUUCGGAUGCAAAGGAGGCAGGCUUCGGUGGCGCGAUAGCGCCAACGUCCUCAACCUCCAAUGCAACCCACCACAUGAUGAUGCCUGAAGAGCCUUGGUUUUUUG [G42A U96A] | -2.83
9 | GACCAAUCUGCCCUCAGAGCUCGAGAACAUCUUCGGAUGCAAAGCAGGCAGGCUUCGGUGGCGCGAUAUCGCCAACGUCCUCAACCUCCAAUGCAUCCCACCACAUGAUGAUGCCUGAAGAGUCUUGGUUUUUUG [G42A G45C G69U C123U] | -0.482
10 | GACCAAUCUGCCCUCAGAGCUCGAGAACAUCUUCGGAUGCAAAGGAGGCAGGCUUCGGUGGCGCGAUAGAGCCAACGUCCUCAACCUGCAAUGCAUCCCACCACAUGAUGAUGCCUGAAGAGCCUUGGUUUUUUG [G42A C70A C88G] | -6.71
11 | GACCAAUCUGCCCUCAGAGCUCGAGAACAUCUUCGGAUGCAAAGGAGGCAGGCUUCGGUGGCCCGAUAGCGCCAACGUCCUCAACCUCCAAUGCAUCCCACCACAUGAUGAUGCCUGAAGAGCCUUGGUUUUGUG [G42A G63C U133G] | -3.43
12 | GACCAAUCUGCCCUCAGAGCUCGAGAACAUCUUCGGAUGCAAAGGAGCCAGGCUUCGGUGGAGCGAUAGCGCCAACGUCCUCAACCUCCAAUGCAUCCCACCACAUGAUGAUGCCUGAUGAGCAUUGGUUUUUUG [G42A G48C C62A A119U C124A] | -3.3
13 | GACCAAUCUGCCCUCAGAGCUCGAGAACAUCUUCGGAUGCAAAGGAGGCAGGCUUCGGUGGCGCGAUAGCGCCAACGUCCUCAACCUCCAAUGCAUCCCACCACAUGGUGAUGCCUGAAGGGCCUUGGUUUUUUG [G42A A108G A121G] | -2.74
14 | GACCAAUCUGCCCUCAGAGCUCGAGAACAUCUUCGGAUGCAAAGGAGGCAGGCUUCGGUGGCGCGAUAGCGCCAACGUCCUCAACCUCCAAUGCAUCCCACCACAUGAUGAUGCCUAAAGAGCCUUGGUUUUUUG [G42A G117A] | -2.65
15 | GACCAAUCUGCCCUCAGAGCUCGAGAACAUCUUCGGAUGCAAAGGAGGCAGGCUUCGGUAGCGCGAUAGCGCCAACGUCCUCAACCUCCAAUGCAUCCCACCACAUGAUGAUGCCUGAAGAGCCUUGGUUUUUUG [G42A G60A] | -2.03
16 | GACCAAUCUGCCCUCAGAGCUCGAGAACAUCUUCGGAUGCAAAUGAGGCAGGAUACGGUGGCGCGAUAGCGCCAACGUCCUCAACCUCCAAUGCAUCCCACCACAUGAUGAUGCCUGAAGAGCCUUCGUUUUUUG [G42A G44U C53A U55A G127C] | -3.14
17 | GACCAAUCUGCCCUCAGAGCUCGAGAACAUCUUCGGAUGCAAAGGAGGCAGGCUUCGGUGGCGCGAUAGCGCCAACGUCCUCAACCUCCAAUGCAUCCCACCACAUGAUGAUGCCUGAAGAGCCUUGGAUUUUUG [G42A U129A] | -3.37
18 | GACCAAUCUGCCCUCAGAGCUCGAGAACAUCUUCGGAUGCAAAGGAGGCAGGCUUCGGUGGCGCGAUAGCGACAACGUCCUCAACCUCCAAUGCAUCCCACCACAUGAUGAUGUCUGAAGAGCCUUGGUUUUUUG [G42A C72A C114U] | -2.37
19 | GACCAAUCUGCCCUCAGAGCUCGAGAACAUCUUCGGAUGCAAAGGAGGCAGGCUUCGGUGGCGCGAUAGCGCCAACGUGCUCAACCUCCAAUGCAUCCCACCACAUGAUGAUACCUGAAGAGCCUUGGUUUUUUG [G42A C79G G113A] | -4.19
20 | GACCAAUCUGCCCUCAGAGCUCGAGAACAUCUUCGGAUGCAAAGGAGCCAGGCUUGGGUGGCGCGAUAGCGCCAACGUCCUCAACUUCCAAUGCAUCCCAGCACAUGAUGAUGCCUGAAGAGCCUUGGUUUUUUG [G42A G48C C56G C86U C101G] | -4.3
21 | GACCAAUCUGCCCUCAGAGCUCGAGAACAUCUUCGGAUGCAAAGGAGGCAGGCUUCGGUGCCGCGAUAGCGCCAACGUCCUCAACCUCCAAUGCAUCCCACCACAUGAUGAUGCCUGAAGAGCCUUGGUUUUAUG [G42A G61C U133A] | -5.31

Row | Variant | polymerase ribozyme fitness (log ratio)
22 | GACCAAUCUGCCCUCAGAGCUCGAGAACAUCUUCGGAUGCAAAGGAGGCAGGCUUCGGUGGCGCGAUAUCGCCAACGUCCUCAACCUCCAAUGCAUCCCACCACAUGAUGAUGCCUGAAGAGCCUUGGUUUUUUG [G42A G69U] | -0.125
23 | GACCAAUCUGCCCUCAGAGCUCGAGAACAUCUUCGGAUGCAAAGUAGGCAGGCUUCGGUGGCGCGAUGGCGCCAACGUCCUUAACCUCUUAUGCAUCCCACCACAUGAUGAUGCCUGGAGAGCCUUGGUUUUUUG [G42A G45U A68G C82U C89U A90U A118G] | -4.62
24 | GACCAAUCUGCCCUCAGAGCUCGAGAACAUCUUCGGAUGCAAAGGAGGCAGGCUUCGGUGGCGUGAUAGCGCCAACGUCCUCAACCUCCAAUGCAUCCCACCACAUGAUGAUGCAUGAUGAGCCUUGGUUUUUUG [G42A C64U C115A A119U] | -3.76
25 | GACCAAUCUGCCCUCAGAGCUCGAGAACAUCUUCGGAUGCAAAGGAGGCAGGCUUCGGUGGCGCGAUAGCUCCAACGUCCUCAACCUCCAAUGCAUCCCACCACAUGAUGAUGCCUGAAGAGCCUUGGUUUUUUG [G42A G71U] | -2.41
26 | GACCAAUCUGCCCUCAGAGCUCGAGAACAUCUUCGGAUGCAAAGGAGGCAGGCUUCGGUGGCGCGAUAGAGCCAACGUCCUCAUCCUCCAACGCAACCCACGACAUGAUGAUGCCUGAAGAGCGUUGGUUUUUUG [G42A C70A A84U U92C U96A C102G C124G] | -6.77
27 | GACCAAUCUGCCCUCAGAGCUCGAGAACAUCUUCGGAUGCAAAUGAGGCAGGCUUCGGUGGCGCGAUAGUGCCAAUGUCCUCAACCUCCAAUGCAUCCCACCACAUGAUGAUGCCUGAAGAGCCUUGGUUUUUUG [G42A G44U C70U C76U] | -4.28
28 | GACCAAUCUGCCCUCAGAGCUCGAGAACAUCUUCGGAUGCAAAGGAGGCAGGCUUCGGUGGCACGAUAGCGCCAACGUCCUCUACCUCCAAUGCAUCCCACCACAUGAUGAUGCCUGAAGUGCCUUGGUUUUUUG [G42A G63A A83U A121U] | -3.11
29 | GACCAAUCUGCCCUCAGAGCUCGAGAACAUCUUCGGAUGCAAAGGAGGCAGGCUUCGGUGGCGCGAUAGCGCCAACGUCCACAACCUCCAAUGCAUCCCACCACAUGAUGAUGCCUGAAGAGCCUUGGUUUUUUG [G42A U81A] | -4.25
30 | GACCAAUCUGCCCUCAGAGCUCGAGAACAUCUUCGGAUGCAAAGGAGGCAGGCUUCGGUGGCGCGAUAGCUCCAACGUCCUCAACCUCCAAUGCAUCCCACCACAUGAUGAUGCCUGAUGAGCCUUGGUUUUUUG [G42A G71U A119U] | -2.99
31 | GACCAAUCUGCCCUCAGAGCUCGAGAACAUCUUCGGAUGCAAAGGAGGCAGGCUUCGGUGGCGCGAUAGCGCUAACGUCCUCAACCUCCAAUGCAUCCCACCACAUGAUGAUGCCUGAAGAGCCUUGGUUUUUUG [G42A C73U] | -1.61
32 | GACCAAUCUGCCCUCAGAGCUCGAGAACAUCUUCGGAUGCAAAGGAGGCAGGCUUCGGUUGCGCGAUAUCGCCAACGUCCUCAACCUCCAAUGCAUCCCACCACAUGAUGAUGCCUGAAGAGCCUUGGUUUUUUG [G42A G60U G69U] | -6.05
33 | GACCAAUCUGCCCUCAGAGCUCGAGAACAUCUUCGGAUGCAAAGGAGGCAGGCUUCGGUGGCGCGAUAGCGCCAACGGCCUCAACCCCCAAUGCAUCCCACCACAUGAUGAUGUCUGAAGAGCCUUGGUUUUUUG [G42A U78G U87C C114U] | -2.18
34 | GACCAAUCUGCCCUCAGAGCUCGAGAACAUCUUCGGAUGCAAAGGAGGCAGGCUUCGGUGGCUCGAUAGCGCCAACGUCCUCAACCUCCAAUGCAUCCCACCACAUGAUGAUGCCUGAAGAGCCUUGGUUUUUUG [G42A G63U] | -3.48
35 | GACCAAUCUGCCCUCAGAGCUCGAGAACAUCUUCGGAUGCAAAGGAGGCAGGUUUCGGUGGCUCGAUAGCGCCAACGUCCUCAACCUCCAAUGCAUCCCACCACAUGAUGAUGCCUGAAGAGCCUUGGUUUUUUG [G42A C53U G63U] | -3.99
36 | GACCAAUCUGCCCUCAGAGCUCGAGAACAUCUUCGGAUGCAAAGGAGGCAGGCUUCGGUGGCGCGAUAGCGCCAACGUCCUCAAUCUCCAAUGCAUCCCACCACAUGAUGAUGCCUGAAGAGCCUUGGUUUUUUG [G42A C85U] | -2.41
37 | GACCAAUCUGCCCUCAGAGCUCGAGAACAUCUUCGGAUGCAAAGGAGGCAGGCUUCGGUGGUGCGAUAGCGCCAACGUCCUCAACCUCCAAUGCAUCCCACCACAUGAUGAUGCCUGAAGAGCCUUGGUUUUUUG [G42A C62U] | -2.15
38 | GACCAAUCUGCCCUCAGAGCUCGAGAACAUCUUCGGAUGCAAAGGAGGCAGGCUUCGGUGGCGCGAUAUCGCCAAAGUCCUCAACCUCCAAUGCAUCCCACCACAUGAUGAUGCCUGAAGUGCCUUGGUUUUUUG [G42A G69U C76A A121U] | -3.23
39 | GACCAAUCUGCCCUCAGAGCUCGAGAACAUCUUCGGAUGCACAGGAGGCAGGCUUCGGUGGCGCGAUAGCGCCAACGUCCUCAACCUCCAAUGCAUCCCACCACAUGAUGAUGCCUGAAGAGCCUUGGUUUUUUG [G42C] | -1.3
40 | GACCAAUCUGCCCUCAGAGCUCGAGAACAUCUUCGGAUGCAAAGGAGGCAGGCUUCGGUGGCGCGAUAGCGGCAACGUCCUCAACCUCGAAUGCAUCCCACCACAUGAUGAUGCCUGAAGAGCCUUGGUUUUUUG [G42A C72G C89G] | -3.84
41 | GACCAAUCUGCCCUCAGAGCUCGAGAACAUCUUCGGAUGCAAAGGAGGCAGGCUCCGGUGGCGCGAUAGCGCCAACGUCCUCAACCUCCAAUGCAUCCCACCACAUGAUGAUGCCUGAAGAGCCUUGGUUUUUUG [G42A U55C] | -2.24
42 | GACCAAUCUGCCCUCAGAGCUCGAGAACAUCUUCGGAUGCAAAGGAGGCAGGCUUCGGUGGCGCGAUAGCGCCAACGUCCUUAACCUCCAAUGCAUCCCACCACAUGAUGAUGCCUGAAGAGCCUUGGUUUUUUG [G42A C82U] | -1.95

Source: the RNAGym collection of RNA variant scans (doi:10.1073/pnas.2313332121)
